# Paper PMC4167695, “Activation of c-Myc and Cyclin D1 by JCV T-Antigen and β-Catenin in Colon Cancer” (PLoS ONE, 2014)
# T1: β-catenin (human (endogenous in HCT116), UniProt P35222 1-781)
# T1 sequence (looked up): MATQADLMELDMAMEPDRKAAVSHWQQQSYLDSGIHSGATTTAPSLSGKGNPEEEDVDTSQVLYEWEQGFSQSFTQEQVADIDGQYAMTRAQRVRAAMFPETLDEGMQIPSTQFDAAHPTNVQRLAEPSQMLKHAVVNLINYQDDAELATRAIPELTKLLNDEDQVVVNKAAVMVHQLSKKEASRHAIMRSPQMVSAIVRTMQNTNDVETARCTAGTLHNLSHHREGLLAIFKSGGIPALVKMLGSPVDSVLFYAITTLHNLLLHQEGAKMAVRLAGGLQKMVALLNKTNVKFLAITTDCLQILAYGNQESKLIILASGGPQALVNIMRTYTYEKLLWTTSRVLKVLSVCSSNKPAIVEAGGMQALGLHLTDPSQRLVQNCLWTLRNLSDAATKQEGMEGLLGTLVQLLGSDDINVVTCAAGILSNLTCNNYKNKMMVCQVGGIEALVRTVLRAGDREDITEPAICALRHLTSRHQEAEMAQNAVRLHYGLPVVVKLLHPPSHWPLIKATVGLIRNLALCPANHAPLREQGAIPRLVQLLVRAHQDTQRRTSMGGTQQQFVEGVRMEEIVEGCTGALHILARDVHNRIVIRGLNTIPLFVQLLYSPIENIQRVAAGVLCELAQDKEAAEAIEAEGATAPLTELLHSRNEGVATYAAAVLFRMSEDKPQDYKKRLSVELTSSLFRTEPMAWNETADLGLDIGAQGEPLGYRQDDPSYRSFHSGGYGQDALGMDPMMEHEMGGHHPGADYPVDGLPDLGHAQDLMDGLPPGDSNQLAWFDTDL
# Target: T1, β-catenin
# Assay: cell-based or functional assay
binder,measurement,value
JCV T-Antigen (natural protein) MDKVLNREESMELMDLLGLDRSAWGNIPVMRKAYLKKCKELHPDKGGDEDKMKRMNFLYKKMEQGVKVAHQPDFGTWNSSEVPTYGTDEWESWWNTFNEKWDEDLFCHEEMFASDDENTGSQHSTPPKKKKKVEDPKDFPVDLHAFLSQAVFSNRTVASFAVYTTKEKAQILYKKLMEKYSVTFISRHGFGGHNILFFLTPHRHRVSAINNYCQKLCTFSFLICKGVNKEYLFYSALCRQPYAVVEESIQGGLKEHDFNPEEPEETKQVSWKLVTQYALETKCEDVFLLMGMYLDFQENPQQCKKCEKKDQPNHFNHHEKHYYNAQIFADSKNQKSICQQAVDTVAAKQRVDSIHMTREEMLVERFNFLLDKMDLIFGAHGNAVLEQYMAGVAWIHCLLPQMDTVIYDFLKCIVLNIPKKRYWLFKGPIDSGKTTLAAALLDLCGGKSLNVNMPLERLNFELGVGIDQFMVVFEDVKGTGAESRDLPSGHGISNLDCLRDYLDGSVKVNLERKHQNKRTQVFPPGIVTMNEYSVPRTLQARFVRQIDFRPKAYLRKSLSCSEYLLEKRILQSGMTLLLLLIWFRPVADFAAAIHERIVQWKERLDLEISMYTFSTMKANVGMGRPILDFPREEDSEAEDSGHGSSTESQSQCFSQVSEASGADTQENCTFHICKGFQCFKKPKTPPPK,"Cyclin D1 promoter luciferase activity in HCT116 cells co-transfected with T-Antigen and β-catenin, over empty vector controls",11.7 fold
same,"TOPflash (TCF-dependent luciferase reporter) activity in HCT116 cells co-transfected with T-Antigen and exogenous β-catenin, 24 hours post-transfection, normalized to FOPflash",113 fold
same,"c-Myc promoter luciferase activity in HCT116 cells co-transfected with T-Antigen and β-catenin, over empty vector controls",6.1 fold
